Test results taken from patent publication US20240254246A1 (PROMETHEUS BIOSCIENCES, published 2024).

T1: human CD30L expressed on cells (human, UniProt P32971 1-234)
T1 construct: also called huCD30L; B16-huCD30L
T1 sequence: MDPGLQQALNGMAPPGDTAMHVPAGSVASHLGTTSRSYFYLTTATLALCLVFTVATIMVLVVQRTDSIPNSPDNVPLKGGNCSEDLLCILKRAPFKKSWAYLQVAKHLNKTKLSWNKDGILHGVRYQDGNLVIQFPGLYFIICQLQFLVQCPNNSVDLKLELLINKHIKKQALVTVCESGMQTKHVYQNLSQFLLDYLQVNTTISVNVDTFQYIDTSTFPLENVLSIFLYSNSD

T2: recombinant human CD30L protein (human, UniProt P32971 63-234)
T2 construct: also called rhCD30L; huCD30L (ELISA)
T2 sequence (looked up): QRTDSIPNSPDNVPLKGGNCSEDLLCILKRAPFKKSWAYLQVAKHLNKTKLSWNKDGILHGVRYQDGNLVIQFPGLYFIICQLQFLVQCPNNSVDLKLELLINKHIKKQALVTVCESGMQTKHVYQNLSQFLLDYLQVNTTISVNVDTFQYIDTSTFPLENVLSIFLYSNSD

T3: recombinant human CD30L protein (human, UniProt P32971 63-234)
T3 construct: Recombinant protein used in ELISA; also called huCD30L
T3 sequence (looked up): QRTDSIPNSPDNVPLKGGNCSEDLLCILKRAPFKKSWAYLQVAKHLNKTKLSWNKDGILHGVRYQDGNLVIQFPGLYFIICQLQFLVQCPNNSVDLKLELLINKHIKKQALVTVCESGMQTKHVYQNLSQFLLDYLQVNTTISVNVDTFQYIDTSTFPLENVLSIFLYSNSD

T4: human CD30L expressed on cells (human, UniProt P32971 1-234)
T4 construct: whole, on cells; also called huCD30L; B16-huCD30L cells
T4 sequence (looked up): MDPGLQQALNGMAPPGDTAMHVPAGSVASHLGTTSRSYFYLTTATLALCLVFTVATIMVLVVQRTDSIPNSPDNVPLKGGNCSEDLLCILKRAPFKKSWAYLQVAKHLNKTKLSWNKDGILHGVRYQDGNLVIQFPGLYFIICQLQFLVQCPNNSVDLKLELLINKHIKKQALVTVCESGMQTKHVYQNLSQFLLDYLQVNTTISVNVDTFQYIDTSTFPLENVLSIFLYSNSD

T5: recombinant cynomolgus CD30L protein (cynomolgus, UniProt A0A7N9CVX7 63-234)
T5 construct: Recombinant protein used in ELISA; also called cyCD30L
T5 sequence: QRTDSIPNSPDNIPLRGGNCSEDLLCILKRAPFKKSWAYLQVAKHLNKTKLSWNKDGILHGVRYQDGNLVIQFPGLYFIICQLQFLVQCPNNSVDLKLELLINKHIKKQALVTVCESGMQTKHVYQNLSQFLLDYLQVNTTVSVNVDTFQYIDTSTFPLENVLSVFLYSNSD

T6: cynomolgus CD30L expressed on cells (cynomolgus, UniProt A0A7N9CVX7 1-234)
T6 sequence: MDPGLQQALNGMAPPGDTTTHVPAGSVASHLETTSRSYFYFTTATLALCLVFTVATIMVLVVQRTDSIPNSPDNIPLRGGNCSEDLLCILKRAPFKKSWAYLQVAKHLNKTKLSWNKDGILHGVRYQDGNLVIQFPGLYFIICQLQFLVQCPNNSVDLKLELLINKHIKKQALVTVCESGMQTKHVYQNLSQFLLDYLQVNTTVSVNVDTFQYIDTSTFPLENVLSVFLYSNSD

T7: CDH13 (human, UniProt P55290 139-693)
T7 construct: whole, on cells; also called hit #16
T7 sequence (looked up): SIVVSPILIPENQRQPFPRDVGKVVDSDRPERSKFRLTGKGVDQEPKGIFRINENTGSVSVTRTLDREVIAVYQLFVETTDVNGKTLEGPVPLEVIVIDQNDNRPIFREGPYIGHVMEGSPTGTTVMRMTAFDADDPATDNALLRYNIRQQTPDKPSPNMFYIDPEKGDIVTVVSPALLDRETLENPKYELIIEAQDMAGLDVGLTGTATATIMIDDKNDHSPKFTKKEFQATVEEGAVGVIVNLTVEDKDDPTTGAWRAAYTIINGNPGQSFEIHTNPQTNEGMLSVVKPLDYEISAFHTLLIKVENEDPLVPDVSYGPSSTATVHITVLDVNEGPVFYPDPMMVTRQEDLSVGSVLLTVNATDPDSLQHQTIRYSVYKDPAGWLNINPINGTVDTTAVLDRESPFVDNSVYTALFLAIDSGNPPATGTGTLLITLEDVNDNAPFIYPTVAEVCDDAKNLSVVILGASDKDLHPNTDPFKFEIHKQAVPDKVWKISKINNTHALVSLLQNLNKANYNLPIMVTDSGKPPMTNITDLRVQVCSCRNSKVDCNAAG

T8: cynomolgus CD30L expressed on HEK293 cells (cynomolgus, UniProt A0A7N9CVX7 1-234)
T8 sequence: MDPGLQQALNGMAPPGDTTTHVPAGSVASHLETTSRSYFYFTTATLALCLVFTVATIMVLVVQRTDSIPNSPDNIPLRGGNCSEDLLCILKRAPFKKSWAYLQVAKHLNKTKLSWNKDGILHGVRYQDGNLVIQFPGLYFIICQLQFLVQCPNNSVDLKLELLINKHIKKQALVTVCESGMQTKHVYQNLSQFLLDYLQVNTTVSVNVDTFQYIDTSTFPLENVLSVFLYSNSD


Experiments:
[1] = target: T1, human CD30L expressed on cells; experiment: flow cytometry, HuCD30L cells
[2] = target: T2, recombinant human CD30L protein; experiment: ELISA, HuCD30L
[3] = target: T3, recombinant human CD30L protein; experiment: ELISA, CD30 competitor, 1/100 dil
[4] = target: T4, human CD30L expressed on cells; experiment: flow cytometry, PMA/ionomycin-stimulated primary lymphocytes, Patient 4 (CD, #01-051)
From the text: (§1) Peripheral blood mononuclear cells (PBMCs) were isolated from freshly collected whole blood from Ulcerative Colitis (UC) and Crohn's Disease (CD) patients, by conventional density gradient centrifugation. To induce CD30L expression on primary lymphocytes, the isolated cells were stimulated overnight with Phorbol 12-myristate 13-acetate (PMA) and ionomycin. […] After washing to remove unbound antibodies, the cells were fixed in a paraformaldehyde solution and analyzed by flow cytometry to quantify cell surface antibody binding.

[5] = target: T5, recombinant cynomolgus CD30L protein; experiment: ELISA, 1/50 dil
[6] = target: T3, recombinant human CD30L protein; experiment: ELISA, CD30 competitor, 1/10 dil
[7] = target: T5, recombinant cynomolgus CD30L protein; experiment: ELISA, 1/500 dil
[8] = target: T5, recombinant cynomolgus CD30L protein; experiment: ELISA, 1/5000 dil
[9] = target: T4, human CD30L expressed on cells; experiment: flow cytometry, PMA/ionomycin-stimulated primary lymphocytes, Patient 2 (UC, #03-041)
From the text: as §1

[10] = target: T3, recombinant human CD30L protein; experiment: ELISA, CD30 competitor, undil
[11] = target: T3, recombinant human CD30L protein; experiment: ELISA, CD30 competitor, 1/1000 dil
[12] = target: T4, human CD30L expressed on cells; experiment: flow cytometry, PMA/ionomycin-stimulated primary lymphocytes, Patient 1 (CD, #04-021)
From the text: as §1

[13] = target: T4, human CD30L expressed on cells; experiment: flow cytometry, PMA/ionomycin-stimulated primary lymphocytes, Patient 3 (UC, #02-180)
From the text: as §1

[14] = target: T1, human CD30L expressed on cells; experiment: cell-based or functional assay
[15] = target: T6, cynomolgus CD30L expressed on cells; experiment: cell-based or functional assay
CDH13 = target: T7, CDH13; experiment: cell microarray, library and confirmation screens
[16] = target: T4, human CD30L expressed on cells; experiment: flow cytometry, B16-huCD30L cells
Method: Anti-CD30L antibody binding to a CD30L target was determined by flow cytometry, using B16 cells transfected to express human CD30L (compared to non-transfected B16), and using HEK293 cells transfected to express cynomolgus CD30L (compared to non-transfected HEK293). […] Cell surface bound antibodies were detected using a fluorescently labeled anti-human-IgG or anti-mouse IgG, depending on the Fc portion of the antibodies. After incubation with the secondary antibody, the cells were washed, fixed in a paraformaldehyde solution, and analyzed by flow cytometry to detect antibody binding.

[17] = target: T4, human CD30L expressed on cells; experiment: cell-based or functional assay; remark: listed apart in the source
[18] = target: T8, cynomolgus CD30L expressed on HEK293 …; experiment: cell-based or functional assay
[19] = target: T4, human CD30L expressed on cells; experiment: flow cytometry, blocking of huCD30 binding to B16-huCD30L cells

Row | MFI [1] | OD [2] | % inhibition [3] | EC50 [4] | Elisa Binding (OD) [5] | % inhibition [6] | Elisa Binding (OD) [7] | Elisa Binding (OD) [8] | EC50 [9] | % inhibition [10] | % inhibition [11] | EC50 [12] | EC50 [13] | Binder | also measured
1 | 362 MFI | 1.42 OD |  |  |  |  |  |  |  |  |  |  |  | anti-CD30L clone 61 (antibody, V domains shown) VH: QITLKESGPTLVKPTQTLTLTCTFSGFSLSTSGVGVGWIRQPPGKALEWLALIYWNDDKRYSPSLKSRLTITKDTSKNQVVLTMTNMDPVDTATYYCAHRRTTTVTIYYYYMDVWGKGTTVTVSS VL: not shown | 
2 | 1090 MFI | 0.23 OD |  |  |  |  |  |  |  |  |  |  |  | anti-CD30L clone 60 (antibody, V domains shown) VH: QVHLVESGGGVVQPGRSLRLSCAASGFAFNIYGMHWVRQAPGKGLEWVAVISYDGSNKVYADSVKGRFSISRDNSKNTLYLQMNSLRAEDTAVYYCAKSGGITMVRGVFDYWGQGTLVTVSS VL: DIQMTQSPSSLPASVGDRVTITCRASQGIRNDLGWYQQKPGKAPKRLIHAASSLHSGVPSRFSGSGSGTEFTLTISSLQPEDFATYYCLQHNRYPITFGQGTRLEIK | 

The remaining lines, values behind:

Row | Binder | MFI [1] | OD [2] | % inhibition [3] | EC50 [4] | Elisa Binding (OD) [5] | % inhibition [6] | Elisa Binding (OD) [7] | Elisa Binding (OD) [8] | EC50 [9] | % inhibition [10] | % inhibition [11] | EC50 [12] | EC50 [13] | also measured
3 | Clone 1 (antibody, V domains shown, also called CLONE_1 (parental)) VH: QVQLQESGPGLVKPSETLSLTCTVSGGSISGYYWSWIRQPPVKGLEWIGYIFYSGYTKYNPSLKSRVTISVDTSKNQFSLKLSSVTAADTAVYYCARDRWDFDYWGQGALVTVSS VL: AIQMTQSPSYLSASVGDRVTIACRASQGIRNNLGWYQQKPGKAPKLLIYAESSLQSGVPSRFSGSGSGTDFTLTISSLQPEDFATYYCLQDFNYPYTFGQGTKLEIK |  |  | 34% | 4.53 nM | 2.83 OD | 98% | 2.87 OD | 1.16 OD | 5.43 nM | 98% | 0% | 7.45 nM | 5.57 nM | 
4 | anti-CD30L antibody clone 2 with IgG1 constant region SEQ ID NO: 502 (antibody, V domains shown, copies: 2 + 2) VH: EVQLVESGGGLVQPGRSLRLSCAASGFNFDDYAMHWVRQAPGKGLEWVSGISWRSGNIGYAGSVKGRFTISRDNAKNSLYLQMNSLRPEDSALYYCAKDKGIGFNWNYEGFDYWGQGTLVTVSS VL: DIQMTQSPSSLSASVGDRVTITCRASQGISNHLAWFQQKPGKAPKSLIYAASSLQSGVPSKFSGSGSGTDFTLTISSLQPEDFATYYCQQYVTYPLTFGGGTKVEIK |  |  |  |  |  |  |  |  |  |  |  |  |  | IL-8 release dual cell assay, fold better IC50 than reference 1 (ref1) anti-CD30L [14]: 2 fold; IL-8 release dual cell assay, fold better IC50 than reference 1 (ref1) anti-CD30L [15]: 2.6 fold; binding result (CDH13): no binding (tested: 5 µg/mL)
5 | Clone 2 (antibody, V domains shown, also called CLONE_2 (parental)) VH: EVQLVESGGGLVQPGRSLRLSCAASGFNFDDYAMHWVRQAPGKGLEWVSGISWRSGNIGYAGSVKGRFTISRDNAKNSLYLQMNSLRPEDSALYYCAKDKGIGFNWNYEGFDYWGQGTLVTVSS VL: DIQMTQSPSSLSASVGDRVTITCRASQGISNHLAWFQQKPGKAPKSLIYAASSLQSGVPSKFSGSGSGTDFTLTISSLQPEDFATYYCQQYVTYPLTFGGGTKVEIK |  |  | 45% | 1.72 nM | 3.76 OD | 98% | 3.18 OD | 1.23 OD | 1.55 nM | 98% | 1% | 2.4 nM | 1.71 nM | 
6 | anti-CD30L Reference 1 antibody (antibody, human IgG1, lambda, V domains shown) VH: QVQLQESGPGLVKPSETLSLTCTVSGGSISSYIWSWIRQPAGKGLEWIGRIYASGNTNYNPSLKSRVTISVDTSKNQFSLKLSSMTAADTAVYYCARDYRVAGTYYYYYGLDVWGQGTTVTVSS VL: QSALTQPASVSGSPGQSITISCTGTSSDVGVYDYVSWYQQHPGKAPKLMIYEVSNRPSGVSNRFSGSKSGNTASLTISGLQTEDEADYYCSSYTSRSTWVFGGGTKLTVLG |  |  |  | 2.82 nM |  |  |  |  | 3.12 nM |  |  | 3.63 nM | 3.07 nM | EC50 [16]: 1.74 nM; Inhibition of IL-8 release in a dual cell assay (B16-huCD30L cells + K299 cells) IC50 [17]: 1.74 nM; Inhibition of IL-8 release in a dual cell assay (HEK293-cyCD30L cells + K299 cells) IC50 [18]: 0.68 nM; IC50 [19]: 2.77 nM
